Experimental findings from paper PMC11809661 (2024) are described below.

One may read the Kd as the free concentration of one partner at which half of the binding sites on the other are occupied at equilibrium, for simple one-to-one binding. Higher therefore signals lower affinity.

The target in assay [1] is T1, Protein S (Homo sapiens, UniProt P07225).
T1 chain: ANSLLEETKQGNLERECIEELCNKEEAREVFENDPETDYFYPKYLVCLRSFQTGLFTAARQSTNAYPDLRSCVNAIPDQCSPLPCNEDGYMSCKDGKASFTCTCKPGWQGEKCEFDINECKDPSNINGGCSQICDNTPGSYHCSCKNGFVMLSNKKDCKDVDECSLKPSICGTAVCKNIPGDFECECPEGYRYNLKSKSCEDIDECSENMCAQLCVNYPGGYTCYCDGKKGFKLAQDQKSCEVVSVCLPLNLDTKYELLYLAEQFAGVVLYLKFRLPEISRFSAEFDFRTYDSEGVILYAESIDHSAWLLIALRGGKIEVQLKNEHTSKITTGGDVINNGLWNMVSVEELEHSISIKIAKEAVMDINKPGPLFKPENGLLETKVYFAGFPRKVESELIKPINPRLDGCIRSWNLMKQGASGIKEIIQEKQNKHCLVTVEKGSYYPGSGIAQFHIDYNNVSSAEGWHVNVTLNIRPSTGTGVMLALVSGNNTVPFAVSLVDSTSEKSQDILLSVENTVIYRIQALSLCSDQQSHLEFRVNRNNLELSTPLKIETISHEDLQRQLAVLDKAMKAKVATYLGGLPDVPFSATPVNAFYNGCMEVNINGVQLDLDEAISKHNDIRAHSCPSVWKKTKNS
The assay is described as follows: ELISA plate-binding.

For assay [2], the target named is T2, Protein S (Mus musculus, UniProt Q08761).
T2 chain: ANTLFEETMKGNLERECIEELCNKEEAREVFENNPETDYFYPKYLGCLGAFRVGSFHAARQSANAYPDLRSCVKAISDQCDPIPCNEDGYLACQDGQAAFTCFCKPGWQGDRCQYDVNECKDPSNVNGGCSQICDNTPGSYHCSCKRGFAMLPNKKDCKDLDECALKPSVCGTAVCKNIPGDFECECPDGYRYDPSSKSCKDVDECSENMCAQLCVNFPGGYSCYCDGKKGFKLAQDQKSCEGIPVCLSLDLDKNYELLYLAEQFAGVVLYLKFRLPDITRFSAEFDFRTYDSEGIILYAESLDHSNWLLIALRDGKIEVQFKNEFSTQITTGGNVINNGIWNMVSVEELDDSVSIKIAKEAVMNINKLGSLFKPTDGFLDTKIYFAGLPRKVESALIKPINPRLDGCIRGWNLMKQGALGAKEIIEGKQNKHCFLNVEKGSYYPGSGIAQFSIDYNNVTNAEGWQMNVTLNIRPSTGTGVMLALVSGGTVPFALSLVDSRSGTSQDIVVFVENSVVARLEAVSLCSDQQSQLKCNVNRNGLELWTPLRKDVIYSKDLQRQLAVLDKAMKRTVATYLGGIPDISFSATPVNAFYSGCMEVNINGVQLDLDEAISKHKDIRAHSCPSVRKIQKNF
The assay is described as follows: ELISA plate-binding.

B1: C4BPβ 1-119 (protein)
chain: MFFWCACCLMVAWRVSASDAEHCPELPPVDNSIFVAKEVEGQILGTYVCIKGYHLVGKKTLFCNASKEWDNTTTECRLGHCPDPVLVNGEFSSSGPVNVSDKITFMCNDHYILKGSNRS
Take B1: the Kd amounted to 0.86 nM in the assay with Protein S [1] and 0.21 nM in the assay with Protein S [2].
